Read-outs that look alike come from different tables or passages of the source.
What was measured:
[1] = biological target: hemagglutinin H1 on influenza virus A/Puerto Rico/8/34 strain (H1N1) (influenza virus A/Puerto Rico/8/34 (H1N1)) (UniProt P03452); test: cell-based or functional assay
[2] = biological target: hemagglutinin H1 on influenza virus A/Puerto Rico/8/34 strain (H1N1) (influenza virus A/Puerto Rico/8/34 (H1N1)) (UniProt P03452); test: cell-based or functional assay; remark: listed apart in the source

Row | Substance | IC50(µM), plaque assay, infection of MDCK cells [1] | IC50(µM), plaque assay, infection of MDCK cells [2]
1 | C18-s2(4-8) (C18-PRTMV peptide amide) | > 100 µM | –
2 | C18-s2(1-6) (C18-ARLPRT peptide amide) | 3.5 µM | –
3 | C18-s2(1-7) (C18-ARLPRTM peptide amide) | 7.1 µM | –
4 | C18-s2(1-3) (C18-ARL peptide amide) | > 100 µM | –
5 | C18-s2(r1-8) (C18-VMTRPLRA peptide amide) | 93 µM | –
6 | C18-s2(8-15) (C18-VHPKPAQP peptide amide) | 59 µM | –
7 | C18-s2(1-5) (C18-ARLPR peptide amide) | 3.1 µM | 0.35 µM
8 | C18-s2(1-8) (C18-ARLPRTMV peptide amide) | – | 2.4 µM
9 | C18-s2(r1-5) (C18-RPLRA peptide amide) | – | 0.55 µM
10 | C18-s2(2-8) (C18-RLPRTMV peptide amide) | 9.2 µM | –
11 | C18-s2(1-4) (C18-ARLP peptide amide) | 0.9 µM | –
12 | C18-s2(r1-4) (C18-PLRA peptide amide) | – | 0.41 µM
13 | C18-s2(3-8) (C18-LPRTMV peptide amide) | > 100 µM | –
14 | C18-s2(5-11) (C18-RTMVHPK peptide amide) | 11 µM | –
15 | C18-s2(1-2) (C18-AR peptide amide) | > 100 µM | –

— patent US20100119588A1
